# Assay results taken from article PMC11895441.
# Target: human complement Factor H (human) (UniProt P08603)
# Assay: SPR; Biacore X100 Plus; human FH captured by immobilised anti-FH mAb (Q254) on CM5; refolded NspA as analyte, five 3.16-fold dilutions from 10 µM, single-cycle kinetics; 10 mM HEPES, 150 mM NaCl, 3 mM EDTA, 0.005% P-20, pH 7.4; 1:1 model; apparent KD
# UniProt P08603, sequence (P08603 19-1231): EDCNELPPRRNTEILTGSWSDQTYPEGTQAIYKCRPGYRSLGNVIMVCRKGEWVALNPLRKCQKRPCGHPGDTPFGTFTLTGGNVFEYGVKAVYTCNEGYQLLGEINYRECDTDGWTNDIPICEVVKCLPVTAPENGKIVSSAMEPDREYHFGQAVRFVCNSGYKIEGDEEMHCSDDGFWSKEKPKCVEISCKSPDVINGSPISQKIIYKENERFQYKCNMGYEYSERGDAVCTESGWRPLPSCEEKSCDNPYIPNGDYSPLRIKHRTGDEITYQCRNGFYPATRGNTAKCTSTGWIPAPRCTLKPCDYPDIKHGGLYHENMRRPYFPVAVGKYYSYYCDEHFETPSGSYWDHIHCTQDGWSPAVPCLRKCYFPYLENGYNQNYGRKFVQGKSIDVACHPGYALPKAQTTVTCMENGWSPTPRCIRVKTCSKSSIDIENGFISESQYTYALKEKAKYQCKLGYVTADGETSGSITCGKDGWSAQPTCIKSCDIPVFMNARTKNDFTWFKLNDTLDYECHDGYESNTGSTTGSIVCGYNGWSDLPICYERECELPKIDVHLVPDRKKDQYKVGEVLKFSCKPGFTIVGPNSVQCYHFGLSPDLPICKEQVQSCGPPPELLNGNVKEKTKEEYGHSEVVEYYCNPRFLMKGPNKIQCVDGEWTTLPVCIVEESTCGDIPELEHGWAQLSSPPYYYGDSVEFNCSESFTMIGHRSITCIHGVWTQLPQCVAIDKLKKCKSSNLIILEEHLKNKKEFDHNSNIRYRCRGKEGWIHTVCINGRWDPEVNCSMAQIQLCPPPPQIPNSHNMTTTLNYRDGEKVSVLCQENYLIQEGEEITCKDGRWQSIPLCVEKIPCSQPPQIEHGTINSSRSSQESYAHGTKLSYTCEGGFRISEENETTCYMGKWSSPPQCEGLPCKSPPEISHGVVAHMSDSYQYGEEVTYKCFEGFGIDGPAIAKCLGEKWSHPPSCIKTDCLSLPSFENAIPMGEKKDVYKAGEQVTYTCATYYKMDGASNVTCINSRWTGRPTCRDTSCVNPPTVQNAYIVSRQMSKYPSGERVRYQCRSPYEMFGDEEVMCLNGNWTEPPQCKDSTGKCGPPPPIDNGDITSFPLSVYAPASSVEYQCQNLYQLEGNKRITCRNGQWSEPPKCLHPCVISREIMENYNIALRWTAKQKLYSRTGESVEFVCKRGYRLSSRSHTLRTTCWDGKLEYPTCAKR
substance,measurement,value
"purified, refolded NspA from N. meningitidis strain 8047, wild type, without signal sequence (natural protein)",Kd,24.8 nM
same,koff,0.000608 s⁻¹
same,kon,25100 M⁻¹ s⁻¹
